Source: patent publication US20230018670A1 (WIN THERAPEUTICS, published 2023)
Several values for one entry are separate records, joined by “and”; a condition that tells them apart may be missing. Equal values may be shown once.

T1: B7H3 (antigen of the 'B7H3 Octet' value)
T1 construct: antigen of the Octet measurement
T1 sequence (Q5ZPR3 whole entry, species assumed, looked up): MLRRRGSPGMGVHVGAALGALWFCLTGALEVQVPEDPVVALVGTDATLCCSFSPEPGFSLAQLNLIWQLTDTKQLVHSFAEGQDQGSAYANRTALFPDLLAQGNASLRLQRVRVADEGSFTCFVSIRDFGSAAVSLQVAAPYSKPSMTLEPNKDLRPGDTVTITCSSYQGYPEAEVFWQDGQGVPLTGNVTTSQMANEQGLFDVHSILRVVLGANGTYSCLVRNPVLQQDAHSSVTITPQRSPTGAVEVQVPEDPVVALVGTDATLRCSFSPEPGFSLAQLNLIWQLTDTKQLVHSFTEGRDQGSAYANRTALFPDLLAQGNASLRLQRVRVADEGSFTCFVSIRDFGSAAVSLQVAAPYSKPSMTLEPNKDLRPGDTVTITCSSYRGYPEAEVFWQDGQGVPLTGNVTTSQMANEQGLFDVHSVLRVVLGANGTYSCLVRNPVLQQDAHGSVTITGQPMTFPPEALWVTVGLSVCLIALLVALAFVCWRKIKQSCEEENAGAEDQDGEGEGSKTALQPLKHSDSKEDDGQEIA

T2: mB7H3 (endogenous mouse B7H3 on B16 and B78 cells) (mouse, UniProt Q8VE98)
T2 construct: B78 also carries GD2; also called murine B7H3
T2 sequence (receptor, looked up): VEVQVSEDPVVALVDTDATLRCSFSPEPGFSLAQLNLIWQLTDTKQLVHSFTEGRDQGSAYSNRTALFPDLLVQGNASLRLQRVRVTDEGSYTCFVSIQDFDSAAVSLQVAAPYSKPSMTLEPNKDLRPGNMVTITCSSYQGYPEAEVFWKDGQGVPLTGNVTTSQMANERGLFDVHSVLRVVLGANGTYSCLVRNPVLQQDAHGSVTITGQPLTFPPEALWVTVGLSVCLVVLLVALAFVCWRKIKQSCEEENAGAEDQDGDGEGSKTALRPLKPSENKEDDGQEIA


Columns and labels:
[1] = target: T1, B7H3 (antigen of the 'B7H3 Octet' value); assay: Octet, monovalent affinity of the B7H3 arm; construct measured and form of B7H3 not given
[2] = target: T3, B7 Homolog 3 (B7H3) on B78 melanoma tumor cells; assay: cell binding, RFU, B7H3 B78 cells (GD2 and human B7H3); both arms can bind
T3 construct: whole, on cells; In the PET study, tumours that were B7H3-positive and GD2-negative were also used; also called CD276; Cluster of Differentiation 276

[3] = target: T2, mB7H3 (endogenous mouse B7H3 on B16 and …); assay: flow cytometry on B16 cells (no GD2, mouse B7H3), GAH PE; anti-GD2 antibody as control

Kd [1]	EC50 [2]	Binder	binding result [3]
2.4 nM	0.35 nM and 0.357 nM	INV721 (bivalent bispecific anti-B7H3 x anti-GD2 antibody) (bispecific antibody, V domains shown, 89Zr-radiolabelled in the PET and biodistribution studies. An a-fucosylated version is used in FIG. 66., 89Zr-labelled in the in vivo PET study; also called I7-01/GD2-5/7; I7-01/GD2-7) VL 1: DIQMTQSPSSLSASVGDRVTITCRASQSVSSAVAWYQQKPGKAPKLLIYSASSLYSGVPSRFSGSRSGTDFTLTISSLQPEDFATYYCQQSGRSLYTFGQGTKVEIK VH 1: EVQLVESGGGLVQPGGSLRLSCAASGFTFSTYYIHWVRQAPGKGLEWVAWIHPSGKYTYYADSVKGRFTISADTSKNTAYLQMNSLRAEDTAVYYCARHYQVGAMDYWGQGTLVTVSS VL 2: DIQMTQSPSSLSASVGDRVTITCRSSQSLVHRNGNTYLHWYQQKPGKAPKLLIHKVSNRFSGVPSRFSGSGSGTDFTLTISSLQPEDFATYYCSQSTHVPPLTFGQGTKVEIK VH 2: EVQLVESGGGLVQPGGSLRLSCAASGSSFTGYNMNWVRQAPGKGLEWVAAIDPYYGGTYYADSVKGRFTISADTSKNTAYLQMNSLRAEDTAVYYCASGMEYWGQGTLVTVSS	
		Invenra GD2-5 (antibody, V domains shown, anti-GD2 antibody; stands here only as a control on B16 cells; also called GD2-05; anti-GD2 monoclonal antibody GD2-5) VH: EVQLVESGGGLVQPGGSLRLSCAASGSSFTGYNMNWVRQAPGKGLEWVAAIDPYYGGTYYADSVKGRFTISADTSKNTAYLQMNSLRAEDTAVYYCASGMEYWGQGTLVTVSS VL: DIQMTQSPSSLSASVGDRVTITCRSSQSLVHRNGNTYLHWYQQKPGKAPKLLIHKVSNRFSGVPSRFSGSGSGTDFTLTISSLQPEDFATYYCSQSTHVPPLTFGQGTKVEIK	no binding (tested: 1 ug antibody per million cells)
